*: point of attachment. fluorescein = fluorescein label on the N-terminus; Farnesyl = CC(C)=CCC/C(C)=C/CC/C(C)=C/C*; FAM = fluorescein
What was measured:
Conditions in all cases: both partners purified
[1] = target: T1, PDE6D (phosphodiesterase 6 delta), wild type, polyhistidine tag removed (UniProt O43924 1-150); test: fluorescence polarisation; fluorescein-labeled KRAS S3I1 peptide at 5 nM, PDE6D 0-512 nM in twofold dilutions; 20 mM Tris pH 7.5, 150 mM NaCl, 2 mM DTT; quadratic fit in GraFit
T1 construct: Cloned into pRSF-Duet and pBDDB-SPR3; also called PDE6D WT; WT PDE6D; source: E. coli BL21 DE3, purified (HisTrap, TEV protease, reverse HisTrap, Superdex S75)

PDE6D M20K, untagged = target: T2, PDE6D M20K, untagged (UniProt O43924 1-150, M20K); test: as above
T2 construct: PDE6D with M20K; Printed as 'untagged PDE6D.M20K' in the pulldown and release assay; also called attenuated PDE6D

[2] = target: T1, PDE6D (phosphodiesterase 6 delta), wild …; test: fluorescence polarisation; fluorescein-…(OMe)-Far at 500 nM, PDE6D 20 to 0.156 μM in twofold dilutions, without or with compound at 500 μM; 20 mM Tris pH 7.5, 150 mM NaCl, 2 mM DTT, 5% DMSO

Row | Kd [1] | Kd (PDE6D M20K, untagged) | binding result [2] | Binder
1 | 0.05 nM | 2.62 ± 1.7 nM |  | fluorescein-DGKKKKKKSSTIC(Farnesyl)-OMe (also called KRAS S3I1 variant; source: synthetic peptide (JPT Innovative Peptide Solutions)) [KRAS S3I1 peptide, fluorescein-DGKKKKKKSSTIC(OMe)-farnesyl]
2 |  |  | binds | {FAM}-KKKKKKSKTKC(Farnesyl)-OMe (wild-type KRAS (KRAS4B) HVR peptide ending at the farnesylated C185; also called KRAS WT peptide) [fluorescein-labeled KRAS HVR peptide, FAM-KKKKKKSKTKC(OMe)-Far]
